Data taken from publication PMC2063869 (The Journal of Cell Biology, 2006).

Columns and labels:
MBP–Apm1-Δ2–158 = target: T1, MBP–Apm1-Δ2–158 (S. cerevisiae, UniProt Q00776 1-475, Δ2–158); assay: pull-down
T1 sequence (looked up): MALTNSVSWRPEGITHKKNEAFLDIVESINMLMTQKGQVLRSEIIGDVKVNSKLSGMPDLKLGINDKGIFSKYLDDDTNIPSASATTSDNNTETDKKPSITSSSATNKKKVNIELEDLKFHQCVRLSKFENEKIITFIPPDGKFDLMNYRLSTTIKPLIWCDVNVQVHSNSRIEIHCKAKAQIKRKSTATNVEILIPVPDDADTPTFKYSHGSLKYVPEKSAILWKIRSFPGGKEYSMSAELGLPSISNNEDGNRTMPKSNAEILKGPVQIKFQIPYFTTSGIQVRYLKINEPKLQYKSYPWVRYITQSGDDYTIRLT

MBP-Apm1 = target: T2, MBP-Apm1 (S. cerevisiae, UniProt Q00776 1-475); assay: pull-down
T2 sequence (looked up): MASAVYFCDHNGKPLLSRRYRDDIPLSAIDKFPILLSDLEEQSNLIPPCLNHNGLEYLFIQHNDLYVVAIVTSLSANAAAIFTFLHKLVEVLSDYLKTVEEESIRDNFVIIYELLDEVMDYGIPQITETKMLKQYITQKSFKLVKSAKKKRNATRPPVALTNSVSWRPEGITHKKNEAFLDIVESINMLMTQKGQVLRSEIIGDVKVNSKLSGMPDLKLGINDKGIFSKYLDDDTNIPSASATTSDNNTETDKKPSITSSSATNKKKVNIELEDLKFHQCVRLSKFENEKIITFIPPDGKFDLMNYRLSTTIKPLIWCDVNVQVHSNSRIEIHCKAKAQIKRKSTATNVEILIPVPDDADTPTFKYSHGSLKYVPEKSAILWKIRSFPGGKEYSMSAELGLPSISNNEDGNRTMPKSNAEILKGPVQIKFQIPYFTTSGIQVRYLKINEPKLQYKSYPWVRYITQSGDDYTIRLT

binding result (MBP–Apm1-Δ2–158): binds
binding result (MBP-Apm1): binds
B1: Ste13-GST (Ste13p cytosolic domain, residues 1–118, fused to the NH2 terminus of GST) (domain or fragment, S. cerevisiae, UniProt P33894 1-118, looked up)
chain: MSASTHSHKRKNSHLFPQRKSSNSSMDKPFFPNNDSVANTDPQSNENGHTINEIRPTEATIDVTDVPQTPFLQEQYSMRPRRESFQFNDIENQHHTHSFFSVNKFNRRWGEWSLPEKR
